Experimental data: paper doi:10.1101/2024.02.19.580884 (bioRxiv, 2024)
One block for each binder: values may come before it.

What was measured:
Test in all cases: pull-down
[1] = molecular target: T1, 6xHis-AccC (Bacillus subtilis 168, UniProt P49787 1-450)
T1 sequence (looked up): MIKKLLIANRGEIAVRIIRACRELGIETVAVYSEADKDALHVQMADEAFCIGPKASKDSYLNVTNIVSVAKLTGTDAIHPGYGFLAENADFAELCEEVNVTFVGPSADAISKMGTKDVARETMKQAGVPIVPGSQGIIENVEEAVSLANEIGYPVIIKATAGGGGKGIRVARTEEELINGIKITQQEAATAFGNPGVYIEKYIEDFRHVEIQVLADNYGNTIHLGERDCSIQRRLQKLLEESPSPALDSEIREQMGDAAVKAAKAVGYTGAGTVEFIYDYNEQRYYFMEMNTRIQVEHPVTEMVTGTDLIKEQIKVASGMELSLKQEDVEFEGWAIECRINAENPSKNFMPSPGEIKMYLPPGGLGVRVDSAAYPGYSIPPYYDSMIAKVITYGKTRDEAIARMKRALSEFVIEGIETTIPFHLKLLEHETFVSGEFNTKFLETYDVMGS

[2] = molecular target: T2, Strep-tagged AccC (Bacillus subtilis 168, UniProt P49787 1-450)
T2 sequence (looked up): T1 sequence (looked up)

[3] = molecular target: T3, Strep-tagged AccB (Bacillus subtilis 168, UniProt P49786 1-159)
T3 sequence (looked up): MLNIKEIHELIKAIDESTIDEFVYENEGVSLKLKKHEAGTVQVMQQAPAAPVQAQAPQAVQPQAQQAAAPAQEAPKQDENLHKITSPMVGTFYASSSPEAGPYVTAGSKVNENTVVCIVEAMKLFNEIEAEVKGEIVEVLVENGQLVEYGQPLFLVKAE

binding result [1]: binds
B1: GST-tagged RfaA (natural protein, Bacillus subtilis 168, UniProt P54519 1-135, looked up)
chain: MKDNSLLKMDHEDTHLGKVEIAPEVIEVIAGIAASEVDGVAEMRGNFATGVVERFGKVNHGKGVKVDLADDGITIDVYCVVTFGVSIPKVAASVQENIRQTLLNMTSLSINEINIHIVGIQFDTKAQEVQIDEEM

binding result [2]: binds
binding result [3]: binds
B2: 6xHis-SUMO-RfaA (natural protein, Bacillus subtilis 168, UniProt P54519 1-135, looked up)
chain: B1 chain
